Experimental data taken from paper PMC11528095, “PCDH10 is a neuronal receptor for western equine encephalitis virus” (Cell Research, 2024).

Target: T1, His-tagged soluble human PCDH10 (human)
T1 construct: also called sohPCDH10; sohPCDH10-His
Assay: BLI
Conditions: both partners purified

B1: WEEV virus-like particles (spike E2-E1) (complex)
chain 1: SITDDFTLTSPYLGFCPYCRHSAPCFSPIKIENVWDESDDGSIRIQVSAQFGYNQAGTADVTKFRYMSFDHDHDIKEDSMDKIAISTSGPCRRLGHKGYFLLAQCPPGDSVTVSITSGASENSCTVEKKIRRKFVGREEYLFPPVHGKLVKCHVYDHLKETSAGYITMHRPGPHAYKSYLEEASGEVYIKPPSGKNVTYECKCGDYSTGIVSTRTKMNGCTKAKQCIAYKSDQTKWVFNSPDLIRHTDHSVQGKLHIPFRLTPTVCPVPLAHTPTVTKWFKGITLHLTATRPTLLTTRKLGLRADATAEWITGTTSRNFSVGREGLEYVWGNHEPVRVWAQESAPGDPHGWPHEIIIHYYHRHPVYTVIVLCGVALAILVGTASSAACIAKARRDCLTPYALAPNATVPTALAVLCCIRPTNA
chain 2: FEHATTVPNVPGIPYKALVERAGYAPLNLEITVVSSELTPSTNKEYVTCRFHTVIPSPQVKCCGSLECKASSKADYTCRVFGGVYPFMWGGAQCFCDSENTQLSEAYVEFAPDCTIDHAVALKVHTAALKVGLRIVYGNTTAHLDTFVNGVTPGSSRDLKVIAGPISAAFSPFDHKVVIRKGLVYNYDFPEYGAMKPGAFGDIQASSLDATDIVARTDIRLLKPSVKNIHVPYTQAVSGYEMWKNNSGRPLQETAPFGCKIEVEPLRASNCAYGHIPISIDIPDAAFVRSSESPTILEVSCTVADCIYSADFGGSLTLQYKADREGHCPVHSHSTTAVLKEATTHVTAVGSITLHFSTSSPQANFIVSLCGKKTTCNAECKPPADHIIGEPHKVDQEFQAAVSKTSWNWLLALFGGASSLIVVGLIVLVCSSMLINTRR
**Q.** For B1, which Kd is on record?
**A.** 4.66 nM
